Source: US20210388087A1 (Chugai, published 2021)
Numbering of substitutions follows the chain as printed. In names and notes the source's numbering stands.

B1: H183/L072 VL V94D (antibody, name in Kabat numbering, V domains shown)
VH: QVQLVESGGGLVQPGRSLRLSCAASGFTFSNAWMHWVRQAPGKGLEWVAQIKDKGNAYAAYYAPSVKGRFTISRDDSKNSIYLQMNSLKTEDTAVYYCHYVHYASASTVLPAFGVDAWGQGTTVTVSS
VL: DIVMTQSPLSLPVTPGEPASISCQASQELVHMNRNTYLHWYQQKPGQAPRLLIYKVSNRFPGVPDRFSGSGSGTDFTLKISRVEAEDVGVYYCAQGTSDPFTFGQGTKLEIK
B2: H183/L072 VL V94K (antibody, name in Kabat numbering, V domains shown)
VH: B1 VH
VL: B1 VL with D99K
B3: H183/L072 VL V94S (antibody, name in Kabat numbering, V domains shown)
VH: B1 VH
VL: B1 VL with D99S
B4: H183/L072 VL V94P (antibody, name in Kabat numbering, V domains shown)
VH: B1 VH
VL: B1 VL with D99P
B5: H183/L072 VL V94L (antibody, name in Kabat numbering, V domains shown)
VH: B1 VH
VL: B1 VL with D99L
B6: H183/L072 VL V51R (antibody, name in Kabat numbering, V domains shown)
VH: B1 VH
VL: B1 VL with V56R, D99V
B7: H183/L072 VL Y32S (antibody, name in Kabat numbering, V domains shown)
VH: B1 VH
VL: B1 VL with Y37S, D99V
B8: H183/L072 VL V94A (antibody, name in Kabat numbering, V domains shown)
VH: B1 VH
VL: B1 VL with D99A
B9: H183/L072 VL V94T (antibody, name in Kabat numbering, V domains shown)
VH: B1 VH
VL: B1 VL with D99T
B10: H183/L072 VL Y32E (antibody, name in Kabat numbering, V domains shown)
VH: B1 VH
VL: B1 VL with Y37E, D99V
B11: H183/L072 VL V94H (antibody, name in Kabat numbering, V domains shown)
VH: B1 VH
VL: B1 VL with D99H
B12: H183/L072 VL Y32N (antibody, name in Kabat numbering, V domains shown)
VH: B1 VH
VL: B1 VL with Y37N, D99V
B13: H183/L072 VL V51M (antibody, name in Kabat numbering, V domains shown)
VH: B1 VH
VL: B1 VL with V56M, D99V
B14: H183/L072 VL V94M (antibody, name in Kabat numbering, V domains shown)
VH: B1 VH
VL: B1 VL with D99M
B15: H183/L072 VL Y32Q (antibody, name in Kabat numbering, V domains shown)
VH: B1 VH
VL: B1 VL with Y37Q, D99V
B16: H183/L072 VL Y32H (antibody, name in Kabat numbering, V domains shown)
VH: B1 VH
VL: B1 VL with Y37H, D99V
B17: H183/L072 VL Y32L (antibody, name in Kabat numbering, V domains shown)
VH: B1 VH
VL: B1 VL with Y37L, D99V
B18: H183/L072 VL V51S (antibody, name in Kabat numbering, V domains shown)
VH: B1 VH
VL: B1 VL with V56S, D99V
B19: H183/L072 VL Y32A (antibody, name in Kabat numbering, V domains shown)
VH: B1 VH
VL: B1 VL with Y37A, D99V
B20: H183/L072 VL V94F (antibody, name in Kabat numbering, V domains shown)
VH: B1 VH
VL: B1 VL with D99F
B21: H183/L072 VL Y32D (antibody, name in Kabat numbering, V domains shown)
VH: B1 VH
VL: B1 VL with Y37D, D99V
B22: H183/L072 VL V94R (antibody, name in Kabat numbering, V domains shown)
VH: B1 VH
VL: B1 VL with D99R
B23: H183/L072 VL V94E (antibody, name in Kabat numbering, V domains shown)
VH: B1 VH
VL: B1 VL with D99E
B24: H183/L072 VL V51K (antibody, name in Kabat numbering, V domains shown)
VH: B1 VH
VL: B1 VL with V56K, D99V
B25: H183/L072 VL V51L (antibody, name in Kabat numbering, V domains shown)
VH: B1 VH
VL: B1 VL with V56L, D99V
B26: H183/L072 VL V94I (antibody, name in Kabat numbering, V domains shown)
VH: B1 VH
VL: B1 VL with D99I
B27: H183/L072 VL V51Q (antibody, name in Kabat numbering, V domains shown)
VH: B1 VH
VL: B1 VL with V56Q, D99V
B28: H183/L072 VL Y32G (antibody, name in Kabat numbering, V domains shown)
VH: B1 VH
VL: B1 VL with Y37G, D99V
B29: H183/L072 VL Y32K (antibody, name in Kabat numbering, V domains shown)
VH: B1 VH
VL: B1 VL with Y37K, D99V
B30: H183/L072 VL Y32T (antibody, name in Kabat numbering, V domains shown)
VH: B1 VH
VL: B1 VL with Y37T, D99V
B31: H183/L072 VL V94N (antibody, name in Kabat numbering, V domains shown)
VH: B1 VH
VL: B1 VL with D99N
B32: H183/L072 VL V51T (antibody, name in Kabat numbering, V domains shown)
VH: B1 VH
VL: B1 VL with V56T, D99V
B33: H183/L072 VL V94Q (antibody, name in Kabat numbering, V domains shown)
VH: B1 VH
VL: B1 VL with D99Q
B34: H183/L072 VH F27A (antibody, name in Kabat numbering, V domains shown)
VH: B1 VH with F27A
VL: B1 VL with D99V
B35: H183/L072 VH A32L (antibody, name in Kabat numbering, V domains shown)
VH: B1 VH with A32L
VL: B1 VL with D99V
B36: H183/L072 VH A32Q (antibody, name in Kabat numbering, V domains shown)
VH: B1 VH with A32Q
VL: B1 VL with D99V
B37: H183/L072 VH A32K (antibody, name in Kabat numbering, V domains shown)
VH: B1 VH with A32K
VL: B1 VL with D99V
B38: H183/L072 VH A32H (antibody, name in Kabat numbering, V domains shown)
VH: B1 VH with A32H
VL: B1 VL with D99V
B39: H183/L072 VH A32M (antibody, name in Kabat numbering, V domains shown)
VH: B1 VH with A32M
VL: B1 VL with D99V
B40: H183/L072 VH A32E (antibody, name in Kabat numbering, V domains shown)
VH: B1 VH with A32E
VL: B1 VL with D99V
B41: H183/L072 VH A32R (antibody, name in Kabat numbering, V domains shown)
VH: B1 VH with A32R
VL: B1 VL with D99V
B42: H183/L072 VH A32F (antibody, name in Kabat numbering, V domains shown)
VH: B1 VH with A32F
VL: B1 VL with D99V
B43: H183/L072 VH A32I (antibody, name in Kabat numbering, V domains shown)
VH: B1 VH with A32I
VL: B1 VL with D99V
B44: H183/L072 VH A32N (antibody, name in Kabat numbering, V domains shown)
VH: B1 VH with A32N
VL: B1 VL with D99V
B45: H183/L072 VH A32G (antibody, name in Kabat numbering, V domains shown)
VH: B1 VH with A32G
VL: B1 VL with D99V

Biological target: T1, Human CD3eg linker (human)
T1 construct: Single-chain construct; also called recombinant human CD3
T1 chain: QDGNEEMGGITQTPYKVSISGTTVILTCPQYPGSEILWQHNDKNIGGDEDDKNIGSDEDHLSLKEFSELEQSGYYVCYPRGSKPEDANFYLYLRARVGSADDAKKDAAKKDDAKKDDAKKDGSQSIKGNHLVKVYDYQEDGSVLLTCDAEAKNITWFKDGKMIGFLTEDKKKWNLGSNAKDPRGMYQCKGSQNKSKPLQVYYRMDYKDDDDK
Assay: SPR; fold vs parent H183/L072

| Binder | fold change of affinity |
| --- | --- |
| B1 | 0.5 fold |
| B2 | 0.4 fold |
| B3 | 0.7 fold |
| B4 | 1.5 fold |
| B5 | 0.3 fold |
| B6 | 0.9 fold |
| B7 | 0 fold |
| B8 | 1 fold |
| B9 | 1.3 fold |
| B10 | 0 fold |
| B11 | 0.8 fold |
| B12 | 0 fold |
| B13 | 0.5 fold |
| B14 | 0.8 fold |
| B15 | 0 fold |
| B16 | 0 fold |
| B17 | 0 fold |

| Binder | fold change of affinity |
| --- | --- |
| B18 | 0.3 fold |
| B19 | 0 fold |
| B20 | 0.2 fold |
| B21 | 0 fold |
| B22 | 0.5 fold |
| B23 | 0.4 fold |
| B24 | 0.8 fold |
| B25 | 0.6 fold |
| B26 | 0.8 fold |
| B27 | 0.5 fold |
| B28 | 0 fold |
| B29 | 0 fold |
| B30 | 0 fold |
| B31 | 0.9 fold |
| B32 | 0.2 fold |
| B33 | 1 fold |

biological target: T2, Human CD137 ECD (human); assay: single mutant vs template dBBDu183H
T2 construct: also called 4-1BB
T2 sequence (chain, as listed by the source limits assumed): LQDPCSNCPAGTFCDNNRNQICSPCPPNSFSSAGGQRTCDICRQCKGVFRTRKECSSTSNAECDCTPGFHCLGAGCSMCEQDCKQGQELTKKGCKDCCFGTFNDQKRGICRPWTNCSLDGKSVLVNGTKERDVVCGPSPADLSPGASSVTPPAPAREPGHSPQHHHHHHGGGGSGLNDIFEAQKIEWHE

| Binder | fold change of affinity |
| --- | --- |
| B34 | 0.3 fold |
| B35 | 1.2 fold |
| B36 | 1.6 fold |
| B37 | 1 fold |
| B38 | 0.2 fold |
| B39 | 1.6 fold |
| B40 | 0.4 fold |
| B41 | 0.3 fold |
| B42 | 0.1 fold |
| B43 | 2.2 fold |
| B44 | 0.3 fold |
| B45 | 0.1 fold |
